From the RNAGym collection of RNA variant scans (doi:10.1073/pnas.2313332121) come the findings set out here.

The chains are these.
B1: TPR t1 (parent)
chain: GACCAAUCUGCCCUCAGAGCUCGAGAACAUCUUCGGAUGCAGAGGAGGCAGGCUUCGGUGGCGCGAUAGCGCCAACGUCCUCAACCUCCAAUGCAUCCCACCACAUGAUGAUGCCUGAAGAGCCUUGGUUUUUUG

In this data set the parent is B1. Kind of data set: polymerase ribozyme fitness, log enrichment relative to wild type (log ratio); higher = more active; in vitro selection for triplet polymerase activity. In a few lines:
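Only genotypes with ≥10 input reads and ≥1 read per output were kept after Illumina sequencing of input and output libraries. These libraries were PCR-built, transcribed mutants of each subunit of a heterodimeric triplet polymerase ribozyme, each put through one triplicate in vitro selection round with frozen incubation at −7 °C, gel excision of extended constructs, streptavidin-bead capture and RT-PCR. Fitness is a logarithmic ratio of genotype enrichment to wild-type enrichment, from inverse-variance-weighted replicate averages, with the logarithm in base 2.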
For U7C C62U G120A G128A, the “polymerase ribozyme fitness (log ratio)” value came out at 0.578.
Regarding G60A G93A C99U, the “polymerase ribozyme fitness (log ratio)” value was -5.15.
On to C72A G107A C124G, for which the “polymerase ribozyme fitness (log ratio)” value was -5.06.
Under C4U U9G A24U G57C G58U A84G C85A C114G C123G stands -7.47; under A2U A50U, -3.14.
As for C13U, the figure is 0.225; as for C72G C80U, -0.861.
As for A24G G48A C64U U81C A108U G120C, the figure is -6; as for G52A U55A G120C C123A C124U G135A, 1.07.
For A37U U106C, the “polymerase ribozyme fitness (log ratio)” value is -0.686.
For the variant U33C A37C, the “polymerase ribozyme fitness (log ratio)” value was -6.92.
Regarding U14A G48A U59A C89A, the “polymerase ribozyme fitness (log ratio)” value is -5.96.
For the variant G36A A43C, the “polymerase ribozyme fitness (log ratio)” value was -3.56.
In the case of G63C C70U A90G, the “polymerase ribozyme fitness (log ratio)” value stood at 0.0962.
With G42U U87G, the “polymerase ribozyme fitness (log ratio)” value was -0.907.
Under G60A A105U stands -1.64.
Under U9G C115G stands 1.35; under C11G G117A, -0.219; under C40U U116A, -3.34.
As for C20A G23A G36A G48A G113A, the figure is -7.55; as for C20U G113C, -2.2.
On to C79U C114A, for which the “polymerase ribozyme fitness (log ratio)” value is -0.742.
Under U33A C64A G69C stands -5.43; under A27U C53G A66G, -4.36; under C22A G48A G57U C70A A83G A91U C115A, -7.04.
As for C40G G117C, the figure is -3.98; as for C20A C40U U59A G117U G128C, -4.96.
Take G63A A84U C86A U125G: the “polymerase ribozyme fitness (log ratio)” value was -2.61.
Under U78C G110C stands -3.67; under U7A G60U, 0.564; under C73A C88A C89A U112G A119C, -2.76.
For C3A C11G G48U C114A, the “polymerase ribozyme fitness (log ratio)” value is -2.07.
As for C8G C11A U96G C97G U131G, the figure is -5.45; as for C64U C72U U106G G127C, -2.97; as for C13A U21A U54C C56G C86A U106G C124U, -2.59.
C13G G45A G48A G61C: the “polymerase ribozyme fitness (log ratio)” value was -3.73.
C53G G63C G93C C114A: the “polymerase ribozyme fitness (log ratio)” value was -3.01.
In the case of A6U C72U C76G C98U, the “polymerase ribozyme fitness (log ratio)” value was -1.11.
Under U7A G10C A90U C101A stands -4.34.
On to G48U C73U, for which the “polymerase ribozyme fitness (log ratio)” value is -1.06.
As for A50C C53U C56A, the “polymerase ribozyme fitness (log ratio)” value was -0.754.
With A26C G45C U87C, the “polymerase ribozyme fitness (log ratio)” value was -6.66.
For the variant C8G C40G U81G C82U, the “polymerase ribozyme fitness (log ratio)” value was -0.759.
Take C8A C64U A95G A111G G122U G135A: the “polymerase ribozyme fitness (log ratio)” value was -0.12.
Under G127U G128A stands -2.19; under C12U G48A G51U C56A, -2.84.
Under A18C G44A G61U C85G A121U stands -2.31.
On to C49U C124U U132A, for which the “polymerase ribozyme fitness (log ratio)” value is 0.615.
Under G51A C62A U116G C124A stands -5.64; under C3U C11G C12A A50U C56G G113U, -6.33; under U33C A90C, -6.14.
Regarding C4U U109A, the “polymerase ribozyme fitness (log ratio)” value is -5.02.
C11U C28U C82U G120U: the “polymerase ribozyme fitness (log ratio)” value is -2.14.
Under G42C C49U G128A stands -5.33.
Under G36A C97G U112G C115U stands -5.56; under C31G C62U C114G G127U, -6.54.
Take A5C G17U G120A: the “polymerase ribozyme fitness (log ratio)” value is -3.4.
Regarding G44C G61C, the “polymerase ribozyme fitness (log ratio)” value was -3.07.
On to C85A A121C, for which the “polymerase ribozyme fitness (log ratio)” value worked out at 0.793.
As for C11U C62G U112A C123A G127U, the figure is -0.368; as for U78A C114G, -2.43.
Under C11U C28G A37G G120U U130A stands -2.33; under C11G C34U A84C, -3.61; under C8U A18U C53U C79G G93C U130G, -4.48.
Regarding C11G G52A C99U U106G, the “polymerase ribozyme fitness (log ratio)” value was -4.99.
Turning to C11G A18U G42C C89A, the “polymerase ribozyme fitness (log ratio)” value is -0.965.
Regarding C56U G117U, the “polymerase ribozyme fitness (log ratio)” value is -1.63.
For the variant U14A A84C G122A, the “polymerase ribozyme fitness (log ratio)” value is -1.57.
Under G60A G135A stands -0.733.
As for G42U G47U G120U, the figure is -1.57; as for A91C U133A, -0.906; as for G69U C114U U133A, -1.47.
As for C15G C79U, the figure is -1.96.
In the case of C86A U112A, the “polymerase ribozyme fitness (log ratio)” value is 0.808.
Under C40G C114G stands -4.17.
As for A29G G47C C53A U59A, the figure is -2.24.
Under G52U G61C U130G stands -1.58.
As for U33C C62U, the “polymerase ribozyme fitness (log ratio)” value was -5.05.
Under A103C C104A stands -2.67.
As for U38C G44U A91U G120U, the figure is -2.19; as for C15U A46G G51A C56G U59C G71C U78G U92G C123U, -6.11.
As for C72U C79A C115U, the figure is -3.58; as for A2G G61A U116A, -4.16; as for G47C A91C G113C, -2.97.
